For orientation: Km means the substrate concentration at which the rate is half of its maximum. By kcat is commonly meant the maximal rate divided by the concentration of active sites.

Data on 1 substance can be found in article PMC9868417, “Functional characterization of a novel aminoglycoside phosphotransferase, APH(9)-Ic, and its variant from Stenotrophomonas maltophilia” (Frontiers in Cellular and Infection Microbiology, 2023).

The data set concerns CN[C@@H]1[C@H](O)[C@H](NC)[C@H]2O[C@@]3(O)C(=O)C[C@@H](C)O[C@H]3O[C@@H]2[C@H]1O. Put plainly: purified protein. Format: biochemical, Stenotrophomonas maltophilia. To be noted: 2 mM ATP, 10 mM MgCl2, 20 mM KCl, 100 mM HEPES pH 7.0, 37 °C.

For the substance “APH(9)-Ic (Stenotrophomonas maltophilia K279a)”, the Km was determined as 31 ± 5 µM and the kcat worked out at 1.09 ± 0.09 s⁻¹.
